Molecular target: T1, FLAG-Mdm2 (UniProt Q00987 1-491)
T1 construct: Mdm2, E3 ubiquitin ligase; source: HEK-293, transfected, in nuclear and cytoplasmic fractions
Experiment: co-IP; HEK-293 cells transfected with D2R, GRK2 and FLAG-Mdm2; vehicle or 10 μM dopamine for 2 min; nuclear and cytoplasmic fractions each immunoprecipitated with FLAG beads; blot for GRK2
Details: partners not purified

T1 sequence (Q00987 whole entry): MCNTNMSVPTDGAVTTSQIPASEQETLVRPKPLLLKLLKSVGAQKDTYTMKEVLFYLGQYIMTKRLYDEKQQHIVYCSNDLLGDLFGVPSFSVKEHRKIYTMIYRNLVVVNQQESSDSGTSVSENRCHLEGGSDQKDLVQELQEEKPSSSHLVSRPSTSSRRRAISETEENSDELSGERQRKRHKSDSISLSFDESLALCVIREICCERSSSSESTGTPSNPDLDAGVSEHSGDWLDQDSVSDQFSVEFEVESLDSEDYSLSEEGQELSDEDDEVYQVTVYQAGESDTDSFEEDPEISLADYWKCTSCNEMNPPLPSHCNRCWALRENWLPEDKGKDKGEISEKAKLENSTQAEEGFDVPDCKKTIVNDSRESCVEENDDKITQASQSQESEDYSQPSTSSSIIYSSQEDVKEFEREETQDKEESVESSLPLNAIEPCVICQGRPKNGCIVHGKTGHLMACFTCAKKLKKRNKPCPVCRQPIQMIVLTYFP

B1: GRK2 (enzyme, UniProt P25098 1-689, looked up)
chain: MADLEAVLADVSYLMAMEKSKATPAARASKKILLPEPSIRSVMQKYLEDRGEVTFEKIFSQKLGYLLFRDFCLNHLEEARPLVEFYEEIKKYEKLETEEERVARSREIFDSYIMKELLACSHPFSKSATEHVQGHLGKKQVPPDLFQPYIEEICQNLRGDVFQKFIESDKFTRFCQWKNVELNIHLTMNDFSVHRIIGRGGFGEVYGCRKADTGKMYAMKCLDKKRIKMKQGETLALNERIMLSLVSTGDCPFIVCMSYAFHTPDKLSFILDLMNGGDLHYHLSQHGVFSEADMRFYAAEIILGLEHMHNRFVVYRDLKPANILLDEHGHVRISDLGLACDFSKKKPHASVGTHGYMAPEVLQKGVAYDSSADWFSLGCMLFKLLRGHSPFRQHKTKDKHEIDRMTLTMAVELPDSFSPELRSLLEGLLQRDVNRRLGCLGRGAQEVKESPFFRSLDWQMVFLQKYPPPLIPPRGEVNAADAFDIGSFDEEDTKGIKLLDSDQELYRNFPLTISERWQQEVAETVFDTINAETDRLEARKKAKNKQLGHEEDYALGKDCIMHGYMSKMGNPFLTQWQRRYFYLFPNRLEWRGEGEAPQSLLTMEEIQSVEETQIKERKCLLLKIRGGKQFILQCDSDPELVQWKKELRDAYREAQQLVQRVPKMKNKPRSPVVELSKVPLVQRGSANGL
notes: GPCR kinase 2 (GRK2), plasmid without a named tag; detected with antibodies against GRK2; also called GPCR kinase 2; source: HEK-293, transfected, in nuclear and cytoplasmic fractions
ratio of band intensities in the blot, DA(+)/CF group against the DA(−)/CF group (1.0): 2.4

Reference: article PMC11395016, “The Ubiquitination of Arrestin3 within the Nucleus Triggers the Nuclear Export of Mdm2, Which, in Turn, Mediates the Ubiquitination of GRK2 in the Cytosol” (International Journal of Molecular Sciences, 2024)
